What follows are sequences tested on Escherichia coli TOP10 (assay: shrunken log2 fold change of peptide-encoding DNA abundance (4.5 h post-induction vs induction); higher = less antimicrobial activity (less host growth inhibition)). Conditions: time post-induction: 4.5 h; library: site-saturation at positions 5, 18, 19, 20.
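Further: peptides expressed intracellularly from a pBAD plasmid library in pooled LB shake-flask culture, induced with 0.3% L-arabinose, DNA abundance read by NGS, three biological replicates, DESeq2 with apeglm shrinkage.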

Sequence | shrunken log2 fold change
RRIRYRPPRLPRPRPRPWFSPRP | -0.346
RRIRIRPPRLPRPRPRPKYRPRP | 0.0239
RRIRQRPPRLPRPRPRPVKPPRP | -0.00215
RRIRSRPPRLPRPRPRPWKCPRP | -0.0598
RRIRIRPPRLPRPRPRPAGLPRP | -0.0628
RRIRRRPPRLPRPRPRPGGNPRP | 0.475
RRIRARPPRLPRPRPRPLMWPRP | 0.481
RRIRYRPPRLPRPRPRPYKWPRP | -0.169
RRIRIRPPRLPRPRPRPEQEPRP | 0.0276
RRIRLRPPRLPRPRPRPQKNPRP | -0.154
RRIRARPPRLPRPRPRPNTQPRP | -0.0663
RRIRSRPPRLPRPRPRPWQSPRP | 0.143
RRIRFRPPRLPRPRPRPNDIPRP | -0.169
RRIRNRPPRLPRPRPRPDFEPRP | -0.0968
RRIRRRPPRLPRPRPRPFAEPRP | 0.61
RRIRYRPPRLPRPRPRPGLSPRP | -0.439
RRIRVRPPRLPRPRPRPIKTPRP | 0.059
RRIRFRPPRLPRPRPRPVPKPRP | -0.208
RRIRIRPPRLPRPRPRPHDRPRP | -0.289
RRIRLRPPRLPRPRPRPACIPRP | -0.0506
RRIRSRPPRLPRPRPRPWDLPRP | 0.056
RRIRERPPRLPRPRPRPKEIPRP | -0.357
RRIRVRPPRLPRPRPRPHMPPRP | -0.725
RRIRWRPPRLPRPRPRPIYDPRP | -0.227
RRIRQRPPRLPRPRPRPDNRPRP | -0.00104

Sequence | shrunken log2 fold change
RRIRSRPPRLPRPRPRPVEFPRP | -0.928
RRIRFRPPRLPRPRPRPDHWPRP | -0.00426
RRIRARPPRLPRPRPRPWMRPRP | 0.263
RRIRSRPPRLPRPRPRPRGYPRP | 0.13
RRIRQRPPRLPRPRPRPAIYPRP | -0.0621
RRIRERPPRLPRPRPRPNNCPRP | -0.24
RRIRARPPRLPRPRPRPMTRPRP | 0.849
RRIRFRPPRLPRPRPRPTDLPRP | 0.15
RRIRQRPPRLPRPRPRPEEKPRP | 0.00355
RRIRGRPPRLPRPRPRPKIDPRP | 0.372
RRIRQRPPRLPRPRPRPDMMPRP | 0.142
RRIRHRPPRLPRPRPRPVIGPRP | -0.0297
RRIRHRPPRLPRPRPRPCTHPRP | -0.192
RRIRARPPRLPRPRPRPMQKPRP | 0.222
RRIRKRPPRLPRPRPRPGFQPRP | 0.138
RRIRNRPPRLPRPRPRPAQDPRP | 0.288
RRIRKRPPRLPRPRPRPDRDPRP | 0.00592
RRIRWRPPRLPRPRPRPFQIPRP | -0.25
RRIRARPPRLPRPRPRPEKTPRP | 0.38
RRIRQRPPRLPRPRPRPVSVPRP | 0.028
RRIRHRPPRLPRPRPRPKQSPRP | -0.248
RRIRGRPPRLPRPRPRPFDRPRP | 0.0386
RRIRGRPPRLPRPRPRPNLAPRP | 0.961
RRIRVRPPRLPRPRPRPVFGPRP | -0.0383
RRIRGRPPRLPRPRPRPHNYPRP | -0.248

Sequence | shrunken log2 fold change
RRIRHRPPRLPRPRPRPVGVPRP | -0.00247
RRIRGRPPRLPRPRPRPHCDPRP | 3.63
RRIRYRPPRLPRPRPRPLHIPRP | -0.271
RRIRKRPPRLPRPRPRPYIIPRP | -0.0823
RRIRRRPPRLPRPRPRPRNKPRP | 0.0888
RRIRCRPPRLPRPRPRPAFGPRP | 0.194
RRIRYRPPRLPRPRPRPMAQPRP | -0.0848
RRIRWRPPRLPRPRPRPCQSPRP | -0.098
RRIRWRPPRLPRPRPRPTWGPRP | 0.356
RRIRMRPPRLPRPRPRPTHNPRP | 0.275
RRIRERPPRLPRPRPRPMANPRP | 0.0745
RRIRWRPPRLPRPRPRPGPQPRP | 0.938
RRIRLRPPRLPRPRPRPKCFPRP | -0.00607
RRIRWRPPRLPRPRPRPYTQPRP | 0.167
RRIRIRPPRLPRPRPRPQDKPRP | -0.855
RRIRHRPPRLPRPRPRPAWGPRP | 0.542
RRIRARPPRLPRPRPRPPIAPRP | 0.534
RRIRHRPPRLPRPRPRPVTYPRP | -0.181
RRIRYRPPRLPRPRPRPVYEPRP | 2.81
RRIRWRPPRLPRPRPRPYINPRP | -0.536
RRIRKRPPRLPRPRPRPTCDPRP | -0.00872
RRIRVRPPRLPRPRPRPDNFPRP | 0.0216
RRIRERPPRLPRPRPRPHWFPRP | -0.128
RRIRSRPPRLPRPRPRPGKRPRP | -0.0142
RRIRCRPPRLPRPRPRPCSYPRP | -0.895

Sequence | shrunken log2 fold change
RRIRDRPPRLPRPRPRPHQAPRP | -0.0175
RRIRYRPPRLPRPRPRPVTYPRP | -0.41
RRIRARPPRLPRPRPRPDLIPRP | 0.235
RRIRGRPPRLPRPRPRPVWWPRP | 0.997
RRIRMRPPRLPRPRPRPYEIPRP | 0.0237
RRIRDRPPRLPRPRPRPEYSPRP | 0.0929
RRIRWRPPRLPRPRPRPCNQPRP | -0.78
RRIRCRPPRLPRPRPRPQSGPRP | -0.142
RRIRPRPPRLPRPRPRPLHTPRP | -0.128
RRIRSRPPRLPRPRPRPLFAPRP | 0.0687
RRIRNRPPRLPRPRPRPEGEPRP | 0.481
RRIRHRPPRLPRPRPRPEGMPRP | -0.0777
RRIRFRPPRLPRPRPRPYGPPRP | -0.266
RRIRGRPPRLPRPRPRPQFLPRP | -0.0259
RRIRTRPPRLPRPRPRPRPAPRP | 0.555
RRIRTRPPRLPRPRPRPGPSPRP | 0.438
RRIRTRPPRLPRPRPRPVTMPRP | -0.289
RRIRRRPPRLPRPRPRPQSQPRP | 0.112
RRIRYRPPRLPRPRPRPQYPPRP | -0.733
RRIRRRPPRLPRPRPRPHADPRP | 0.573
RRIRSRPPRLPRPRPRPYYCPRP | 2.2
RRIRIRPPRLPRPRPRPQHNPRP | -0.735
RRIRKRPPRLPRPRPRPMGKPRP | -0.0982
RRIRVRPPRLPRPRPRPGVTPRP | 0.0341
RRIRGRPPRLPRPRPRPKNIPRP | -0.101

Sequence | shrunken log2 fold change
RRIRLRPPRLPRPRPRPTTDPRP | -0.287
RRIRPRPPRLPRPRPRPPTLPRP | 0.129
RRIRARPPRLPRPRPRPPEKPRP | 0.611
RRIRMRPPRLPRPRPRPYEYPRP | 0.0662
RRIRWRPPRLPRPRPRPHMHPRP | -0.36
RRIRGRPPRLPRPRPRPKAIPRP | 0.363
RRIRWRPPRLPRPRPRPFAFPRP | -0.195
RRIRNRPPRLPRPRPRPDMEPRP | -0.0836
RRIRSRPPRLPRPRPRPLLNPRP | -0.117
RRIRIRPPRLPRPRPRPECQPRP | -0.00158
RRIRERPPRLPRPRPRPRSSPRP | 0.116
RRIRHRPPRLPRPRPRPMNEPRP | -0.275
RRIRHRPPRLPRPRPRPDWRPRP | 0.147
RRIRCRPPRLPRPRPRPHAGPRP | 0.185
RRIRCRPPRLPRPRPRPQCLPRP | -0.442
RRIRDRPPRLPRPRPRPQQTPRP | -0.252
RRIRGRPPRLPRPRPRPQIFPRP | -0.0563
RRIRVRPPRLPRPRPRPVIGPRP | 0.183
RRIRIRPPRLPRPRPRPMHTPRP | 0.0542
RRIRPRPPRLPRPRPRPYANPRP | -0.231
RRIRHRPPRLPRPRPRPKKQPRP | -0.0264
RRIRFRPPRLPRPRPRPQTKPRP | -0.142
RRIRLRPPRLPRPRPRPRVTPRP | -0.243
RRIRTRPPRLPRPRPRPRVSPRP | 0.0622
RRIRKRPPRLPRPRPRPWYKPRP | -0.0194

Sequence | shrunken log2 fold change
RRIRMRPPRLPRPRPRPFELPRP | 0.0846
RRIRERPPRLPRPRPRPTGNPRP | -0.267
RRIRTRPPRLPRPRPRPKTKPRP | -0.212
RRIRVRPPRLPRPRPRPWTEPRP | -0.0547
RRIRIRPPRLPRPRPRPEGHPRP | -0.00139
RRIRHRPPRLPRPRPRPTMIPRP | -0.112
RRIRGRPPRLPRPRPRPGSYPRP | -0.242
RRIRVRPPRLPRPRPRPNCFPRP | -0.158
RRIRKRPPRLPRPRPRPYIMPRP | -0.153
RRIRERPPRLPRPRPRPDNRPRP | -0.0217
RRIRPRPPRLPRPRPRPVWRPRP | 0.516
RRIRGRPPRLPRPRPRPYKCPRP | -0.00955
RRIRWRPPRLPRPRPRPFDHPRP | 0.124
RRIRARPPRLPRPRPRPENGPRP | -0.0341
RRIRGRPPRLPRPRPRPHGRPRP | 0.182
RRIRWRPPRLPRPRPRPVTFPRP | -0.186
RRIRHRPPRLPRPRPRPGSIPRP | -0.209
RRIRIRPPRLPRPRPRPGDRPRP | -0.123
RRIRFRPPRLPRPRPRPYKAPRP | -0.153
RRIRARPPRLPRPRPRPCMMPRP | -0.0864
RRIRVRPPRLPRPRPRPRWNPRP | 0.132
RRIRARPPRLPRPRPRPLKIPRP | -0.165
RRIRVRPPRLPRPRPRPGEKPRP | -0.186
RRIRERPPRLPRPRPRPIPDPRP | -0.209
RRIRNRPPRLPRPRPRPTHNPRP | -0.114

From the supplement of paper PMC9112550, “Optimization of the antimicrobial peptide Bac7 by deep mutational scanning” (BMC Biology, 2022)
